The text below walks through data of patent US20210395393A1 (EMSTOPA, published 2021).

For assay [1], the target named is T1, recombinant human tPA (rh-tPA: abcam ab92637) (human, UniProt P00750 36-562). The assay is described as follows: cell-based or functional assay.
Assay [2] addresses T1, recombinant human tPA (rh-tPA: abcam …). The experiment in a line: binding ELISA, plate coated with human tPA; Fab as Expi293 conditioned medium. An excerpt:
(§1) Binding activity of the TPAi-1 RHP/RKA Fab to the human tPA antigen was compared to that of the purified TPAi-1 RHP/RKA antibody in a binding ELISA. […] Following purification of TPAi-1 RHP/RKA Fab from a large scale culture, its binding to human tPA was reconfirmed by ELISA (FIG. 23). In this assay, plateauing of both binding curves was more apparent.
In general terms: An ELISA detects its analyte on a solid surface through an enzyme-linked reagent.

Assay [3] has the same target. The experiment in a line: binding ELISA, plate coated with human tPA; reference TPAi-1 RHP/RKA IgG1. An excerpt:
(§2) Binding activity of the purified TPAi-1 RHP/RKA F(ab′)2 to the human tPA antigen was compared to that of the purified TPAi-1 RHP/RKA whole IgG1 antibody and RHP/RKA Fab in a binding ELISA. […] The EC50 values for the IgG1 and Fab are in agreement with those seen in earlier experiments. There is a consistent 4-fold difference in avidity between these two formats.

For assay [4] the target is unchanged. The assay is described as follows: binding ELISA, plate coated with human tPA.
Source text: as §2

The target is the same in assay [5]. The experiment in a line: binding ELISA, plate coated with human tPA; reference TPAi-1 RHP/RKA Fab.
Source text: as §1

Assay [6] shares this target. The experiment in a line: binding ELISA to human tPA after serum incubation. The method, then:
Purified samples of humanised antibodies TPAi-1 RHE/RKA and RHP/RKA were incubated in mouse, human and cynomolgus serum (4.10.1). The binding abilities of the antibodies after 29 days incubation were measured by binding ELISA to human tPA. For each antibody, one ELISA plate compared the binding of the 4° C. control sample to samples incubated at 37° C. in PBS and human serum. A second ELISA plate compared the binding of the 4° C. control sample to samples incubated at 37° C. in mouse and cynomolgus serum. […] Therefore the TPAi-1 RHE/RKA and RHP/RKA antibodies retained their binding capabilities on incubation in mouse, human and cynomolgus serum for 29 days.

T1 sequence (P00750 36-562 limits assumed): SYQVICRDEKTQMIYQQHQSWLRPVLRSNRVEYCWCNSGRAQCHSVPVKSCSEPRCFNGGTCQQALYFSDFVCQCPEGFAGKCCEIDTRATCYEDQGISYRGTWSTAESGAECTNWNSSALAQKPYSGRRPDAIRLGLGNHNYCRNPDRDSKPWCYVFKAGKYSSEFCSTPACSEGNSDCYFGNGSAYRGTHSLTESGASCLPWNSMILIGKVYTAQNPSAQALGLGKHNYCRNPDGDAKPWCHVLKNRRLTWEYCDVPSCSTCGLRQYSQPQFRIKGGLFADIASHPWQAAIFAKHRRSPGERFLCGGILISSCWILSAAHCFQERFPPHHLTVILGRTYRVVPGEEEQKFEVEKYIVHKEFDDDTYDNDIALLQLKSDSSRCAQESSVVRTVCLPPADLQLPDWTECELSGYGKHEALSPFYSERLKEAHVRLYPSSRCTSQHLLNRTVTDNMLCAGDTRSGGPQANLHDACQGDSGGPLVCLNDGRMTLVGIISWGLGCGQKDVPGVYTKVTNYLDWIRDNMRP

B1: TPAi-1 RHP/RKA Fab (Fab, V domains shown)
VH: QVQLVQSGAEVKKPGASVKVSCKASGNTSYWINWVRQATGQGLEWMGRIDPGGGSTGYAQKFQGRVTMTRDTSISTAYMELSSLRSEDTAVYYCASYYYAMAYWGQGTLVTVSS
VL: DVVMTQSPLSLPVTPGEPASISCRSSQSIVHSNGNTYLDWYLQKPGQSPQLLIYKVSNRASGVPDRFSGSGSGTDFTLKISRVEAEDVGVYYCFQGSHVPWTFGGGTKVEIK
notes: Recombinant Fab: RHP variable region in pHuG1_Fab vector with RKA in pHuK, expressed in Expi293 cells; also called TPAi-1 RHP/PKA Fab; humanised Fab
Usually EC50 stands for the concentration at which the effect is half-maximal. With B1, in assay [1], the “inhibition of human plasma clot lysis (t-PA 1.5 nM, A405 nm turbidity)” value was ~2 fold (amount against TPAi-1 RHP/RKA). In addition, the EC50 in assay [2] was 1.15 nM; in assay [4], 1.68 nM. Moreover, in assay [3], the “fold difference in avidity between IgG1 and Fab” value worked out at 4 fold.

B2: TPAi-1 RHP/RKA F(ab')2 (other)
VH: QVQLVQSGAEVKKPGASVKVSCKASGNTSYWINWVRQATGQGLEWMGRIDPGGGSTGYAQKFQGRVTMTRDTSISTAYMELSSLRSEDTAVYYCASYYYAMAYWGQGTLVTVSS
VL: DVVMTQSPLSLPVTPGEPASISCRSSQSIVHSNGNTYLDWYLQKPGQSPQLLIYKVSNRASGVPDRFSGSGSGTDFTLKISRVEAEDVGVYYCFQGSHVPWTFGGGTKVEIK
notes: F(ab')2 made by pepsin digestion of TPAi-1 RHP/RKA IgG1 kappa and gel filtration
Turning to B2, the EC50 in assay [4] is 0.379 nM.

B3: TPAi-1 RHP/RKA (antibody, V domains shown)
VH: QVQLVQSGAEVKKPGASVKVSCKASGNTSYWINWVRQATGQGLEWMGRIDPGGGSTGYAQKFQGRVTMTRDTSISTAYMELSSLRSEDTAVYYCASYYYAMAYWGQGTLVTVSS
VL: DVVMTQSPLSLPVTPGEPASISCRSSQSIVHSNGNTYLDWYLQKPGQSPQLLIYKVSNRASGVPDRFSGSGSGTDFTLKISRVEAEDVGVYYCFQGSHVPWTFGGGTKVEIK
notes: Human IgG1 kappa (pHuG1 / pHuK vectors); also called humanised TPAi-1 (RHP/RKA); humanized TPAi-1
Regarding B3, the “plateau A650 of the binding curve against the plateau of the Fab curve” value in assay [5] is about 1.4 fold. Moreover, the EC50 in assay [4] came to 0.475 nM.

B4: TPAi-1 RHE/RKA (antibody, V domains shown)
VH: QVQLVQSGAEVKKPGASVKVSCKASGNTSYWINWVRQATGQGLEWMGRIDPGGGSTGYAQKFQGRVTMTRNTSISTAYMELSSLRSEDTAVYYCASYYYAMAYWGQGTLVTVSS
VL: DVVMTQSPLSLPVTPGEPASISCRSSQSIVHSNGNTYLDWYLQKPGQSPQLLIYKVSNRASGVPDRFSGSGSGTDFTLKISRVEAEDVGVYYCFQGSHVPWTFGGGTKVEIK
notes: Human IgG1 kappa
B4: the binding result in assay [6] is listed as “binds”.
